Measured values as given in the supplement of paper PMC10567573.

B1: PTPLAD1 (parent)
chain: YSFYMLTCIDMDWKVLTWLRYTLW
B2: TPRG1 (parent)
chain: ETIQGFWLLTKIDHWNNEKERILL
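Note: lentivirally expressed fusions sorted by FACS into six bins by GFP to DsRed ratio, PSI derived from sequencing read proportions per bin multiplied by bin number.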

Variants of: B1
Test: protein stability index of a GFP-peptide fusion (GPS, HEK-293T) (PSI 1-6); higher = more stable
Details: c terminus: a fixed tail appended
Work on YSFYMLTCIDMDWKVLTWLRYTRW [L23R] yielded a protein stability index of 4.16. YSFYMLTCIDMDWKVLTWLRYTDW [L23D] showed a protein stability index of 2.6. Variant YSFYMLTCIDMDWKVLTWLRYTWW [L23W] has a protein stability index of 2.4. YSFYMLTCIDMDWKVLTWLRYTAW [L23A] gave a protein stability index of 3.26. For YSFYMLTCIDMDWKVLTWLRYTHW [L23H], the protein stability index was 2.58. Work on YSFYMLTCIDMDWKVLTWLRYTCW [L23C] yielded a protein stability index of 4.3. Work on YSFYMLTCIDMDWKVLTWLRYTIW [L23I] yielded a protein stability index of 2.88. Work on YSFYMLTCIDMDWKVLTWLRYTFW [L23F] yielded a protein stability index of 2.46. YSFYMLTCIDMDWKVLTWLRYTQW [L23Q] showed a protein stability index of 3.84. For YSFYMLTCIDMDWKVLTWLRYTTW [L23T], the protein stability index was 4.8. Work on YSFYMLTCIDMDWKVLTWLRYTEW [L23E] yielded a protein stability index of 2.74. With YSFYMLTCIDMDWKVLTWLRYTPW [L23P] the protein stability index was 4.2. With YSFYMLTCIDMDWKVLTWLRGTLW [Y21G] the protein stability index was 3.32. YSFYMLTCIDMDWKVLTWLRVTLW [Y21V] showed a protein stability index of 2.28. Variant YSFYMLTCIDMDWKVLTWLRWTLW [Y21W] has a protein stability index of 1.84. YSFYMLTCIDMDWKVLTWLRQTLW [Y21Q] showed a protein stability index of 2.17. With YSFYMLTCIDMDWKVLTWLRLTLW [Y21L] the protein stability index was 3.2. YSFYMLTCIDMDWKVLTWLRITLW [Y21I] gave a protein stability index of 2.98. Work on YSFYMLTCIDMDWKVLTWLRETLW [Y21E] yielded a protein stability index of 3.44. With YSFYMLTCIDMDWKVLTWLRRTLW [Y21R] the protein stability index was 2.05. With YSFYMLTCIDMDWKVLTWLRNTLW [Y21N] the protein stability index was 4.05. YSFYMLTCIDMDWKVLTWLRFTLW [Y21F] showed a protein stability index of 2.66. With YSFYMLTCIDMDWKVLTWLRSTLW [Y21S] the protein stability index was 3.16. In the case of YSFYMLTCIDMDWKVLTWLRCTLW [Y21C], the protein stability index is reported as 4.75. YSFYMLTCIDMDWKVLTWLWYTLW [R20W] showed a protein stability index of 1.06. Variant YSFYMLTCIDMDWKVLTWLPYTLW [R20P] has a protein stability index of 3.84. In the case of YSFYMLTCIDMDWKVLTWLMYTLW [R20M], the protein stability index is reported as 2.04. With YSFYMLTCIDMDWKVLTWLHYTLW [R20H] the protein stability index was 4.19. YSFYMLTCIDMDWKVLTWLYYTLW [R20Y] gave a protein stability index of 2.42. YSFYMLTCIDMDWKVLTWLVYTLW [R20V] showed a protein stability index of 2.13. YSFYMLTCIDMDWKVLTWLKYTLW [R20K] showed a protein stability index of 3.46. YSFYMLTCIDMDWKVLTWLNYTLW [R20N] gave a protein stability index of 4.06. YSFYMLTCIDMDWKVLTWLGYTLW [R20G] showed a protein stability index of 3. Work on YSFYMLTCIDMDWKVLTWLTYTLW [R20T] yielded a protein stability index of 3.6. Variant YSFYMLTCIDMDWKVLTWLLYTLW [R20L] has a protein stability index of 1.23. With YSFYMLTCIDMDWKVLTWLCYTLW [R20C] the protein stability index was 1.52. Work on YSFYMLTCIDMDWKVLTWLIYTLW [R20I] yielded a protein stability index of 1.69. Variant YSFYMLTCIDMDWKVLTWLAYTLW [R20A] has a protein stability index of 2.88. For YSFYMLTCIDMDWKVLTWLFYTLW [R20F], the protein stability index was 1.28.

Variants of: B2
Test: as above
Details: c terminus: a fixed tail appended
Work on ETSQGFWLLTKIDHWNNEKERILL [I3S] yielded a protein stability index of 1.28. ETDQGFWLLTKIDHWNNEKERILL [I3D] showed a protein stability index of 1.39. Work on ETRQGFWLLTKIDHWNNEKERILL [I3R] yielded a protein stability index of 1.88. Work on ETTQGFWLLTKIDHWNNEKERILL [I3T] yielded a protein stability index of 2.18. For ETLQGFWLLTKIDHWNNEKERILL [I3L], the protein stability index was 1.53. In the case of ETPQGFWLLTKIDHWNNEKERILL [I3P], the protein stability index is reported as 2.05. Variant ETYQGFWLLTKIDHWNNEKERILL [I3Y] has a protein stability index of 2.55. With ETQQGFWLLTKIDHWNNEKERILL [I3Q] the protein stability index was 1.99. With ETCQGFWLLTKIDHWNNEKERILL [I3C] the protein stability index was 2.25. ETEQGFWLLTKIDHWNNEKERILL [I3E] showed a protein stability index of 2.04. Work on ETNQGFWLLTKIDHWNNEKERILL [I3N] yielded a protein stability index of 1.71. In the case of ETVQGFWLLTKIDHWNNEKERILL [I3V], the protein stability index is reported as 3.9. ETGQGFWLLTKIDHWNNEKERILL [I3G] gave a protein stability index of 2.14. TTIQGFWLLTKIDHWNNEKERILL [E1T] gave a protein stability index of 1.82. For STIQGFWLLTKIDHWNNEKERILL [E1S], the protein stability index was 2.85. In the case of ATIQGFWLLTKIDHWNNEKERILL [E1A], the protein stability index is reported as 2.75. In the case of DTIQGFWLLTKIDHWNNEKERILL [E1D], the protein stability index is reported as 2.8. Work on VTIQGFWLLTKIDHWNNEKERILL [E1V] yielded a protein stability index of 4.74. With ITIQGFWLLTKIDHWNNEKERILL [E1I] the protein stability index was 3.09. Variant QTIQGFWLLTKIDHWNNEKERILL [E1Q] has a protein stability index of 3.37. Variant LTIQGFWLLTKIDHWNNEKERILL [E1L] has a protein stability index of 4.7. Variant PTIQGFWLLTKIDHWNNEKERILL [E1P] has a protein stability index of 2.65. NTIQGFWLLTKIDHWNNEKERILL [E1N] showed a protein stability index of 2.13. Work on HTIQGFWLLTKIDHWNNEKERILL [E1H] yielded a protein stability index of 2.48. ERIQGFWLLTKIDHWNNEKERILL [T2R] showed a protein stability index of 3.03. In the case of EHIQGFWLLTKIDHWNNEKERILL [T2H], the protein stability index is reported as 1.67. For EKIQGFWLLTKIDHWNNEKERILL [T2K], the protein stability index was 2.22. With EEIQGFWLLTKIDHWNNEKERILL [T2E] the protein stability index was 2.51. Variant ECIQGFWLLTKIDHWNNEKERILL [T2C] has a protein stability index of 1.55. EDIQGFWLLTKIDHWNNEKERILL [T2D] showed a protein stability index of 1.91. Variant EYIQGFWLLTKIDHWNNEKERILL [T2Y] has a protein stability index of 3.19. Variant EQIQGFWLLTKIDHWNNEKERILL [T2Q] has a protein stability index of 2.82. ELIQGFWLLTKIDHWNNEKERILL [T2L] gave a protein stability index of 1.67. ENIQGFWLLTKIDHWNNEKERILL [T2N] showed a protein stability index of 2.16. EPIQGFWLLTKIDHWNNEKERILL [T2P] gave a protein stability index of 1.61. ETIQKFWLLTKIDHWNNEKERILL [G5K] showed a protein stability index of 2.04. For ETIQYFWLLTKIDHWNNEKERILL [G5Y], the protein stability index was 2.95. ETIQWFWLLTKIDHWNNEKERILL [G5W] gave a protein stability index of 3.06. With ETIQIFWLLTKIDHWNNEKERILL [G5I] the protein stability index was 1.69. ETIQQFWLLTKIDHWNNEKERILL [G5Q] gave a protein stability index of 1.98. Variant ETIQLFWLLTKIDHWNNEKERILL [G5L] has a protein stability index of 1.38. With ETIQPFWLLTKIDHWNNEKERILL [G5P] the protein stability index was 2.33. For ETIQSFWLLTKIDHWNNEKERILL [G5S], the protein stability index was 2. With ETIQHFWLLTKIDHWNNEKERILL [G5H] the protein stability index was 2.36. With ETIQCFWLLTKIDHWNNEKERILL [G5C] the protein stability index was 3.97. ETIGGFWLLTKIDHWNNEKERILL [Q4G] gave a protein stability index of 2.68. ETIEGFWLLTKIDHWNNEKERILL [Q4E] gave a protein stability index of 2.23. In the case of ETIPGFWLLTKIDHWNNEKERILL [Q4P], the protein stability index is reported as 3.54. For ETITGFWLLTKIDHWNNEKERILL [Q4T], the protein stability index was 1.88. ETIYGFWLLTKIDHWNNEKERILL [Q4Y] gave a protein stability index of 2.77. Work on ETIHGFWLLTKIDHWNNEKERILL [Q4H] yielded a protein stability index of 1.97. For ETIKGFWLLTKIDHWNNEKERILL [Q4K], the protein stability index was 2.89. In the case of ETINGFWLLTKIDHWNNEKERILL [Q4N], the protein stability index is reported as 1.82. ETIDGFWLLTKIDHWNNEKERILL [Q4D] gave a protein stability index of 3.98. With ETIMGFWLLTKIDHWNNEKERILL [Q4M] the protein stability index was 3.23.
